Results as given in the supplement of paper PMC6757056.
± gives the standard deviation of the averaged measurements.

B1: library; a variant is named by its letters at N, in order (parent)
chain: GCUGUCACCGAGAAACUGUGAAGUAUAUCUUAAACCUGGGCACUUAAAAGAUAUAUGGAGUUAGUAGUGCAACCUGCUCGGUCUGAUGAGUCCNNNNNNGGACGAAACAGC

Tests used:
cyclic di-GMP [1] = variants of: B1; test: normalized RNA/DNA level without ligand (relative to sTRSVctl = 100) (log10 (% of sTRSVctl)); HEK293T; ligand: cyclic di-GMP (c-di-GMP-II aptamer); higher = less ribozyme self-cleavage, higher mRNA level; conditions: reporter: mCherry (pCS4076), ligand present: no
How it was run: (§1)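 HEK293T cells received ligand, where used, 1 h before being transfected with 4 µg per 6-well well of library plasmids encoding reporter-linked ribozyme switches. After 72 h, RNA was extracted with EDTA and sequenced. RNA level was derived from RNA reads per DNA read, normalized to a spiked-in non-cleaving sequence or the top sequences, then scaled and log-transformed. Values were ×100 then log10, the top set was 25 sequences, and the minimum was 100 DNA reads.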

cyclic di-GMP [2] = variants of: B1; test: normalized RNA/DNA level with ligand (relative to sTRSVctl = 100) (log10 (% of sTRSVctl)); HEK293T; ligand: cyclic di-GMP (c-di-GMP-II aptamer); ligand concentration (+) RNA-Seq: 1 mM; higher = less ribozyme self-cleavage, higher mRNA level; conditions: reporter: mCherry (pCS4076), ligand present: yes
How it was run: as §1

| Variant | normalized RNA/DNA level without ligand (log10) (cyclic di-GMP [1]) | normalized RNA/DNA level with ligand (log10) (cyclic di-GMP [2]) |
| --- | --- | --- |
| GCUGUCACCGAGAAACUGUGAAGUAUAUCUUAAACCUGGGCACUUAAAAGAUAUAUGGAGUUAGUAGUGCAACCUGCUCGGUCUGAUGAGUCCGCGCUGGGACGAAACAGC [GCGCUG] | 1.77 ± 0.049 | 1.84 ± 0.14 |
| GCUGUCACCGAGAAACUGUGAAGUAUAUCUUAAACCUGGGCACUUAAAAGAUAUAUGGAGUUAGUAGUGCAACCUGCUCGGUCUGAUGAGUCCGCGCUUGGACGAAACAGC [GCGCUU] | 1.61 ± 0.043 | 1.78 ± 0.13 |
| GCUGUCACCGAGAAACUGUGAAGUAUAUCUUAAACCUGGGCACUUAAAAGAUAUAUGGAGUUAGUAGUGCAACCUGCUCGGUCUGAUGAGUCCCCGCUCGGACGAAACAGC [CCGCUC] | 1.66 ± 0.029 | 1.85 ± 0.094 |
| GCUGUCACCGAGAAACUGUGAAGUAUAUCUUAAACCUGGGCACUUAAAAGAUAUAUGGAGUUAGUAGUGCAACCUGCUCGGUCUGAUGAGUCCCCGCUGGGACGAAACAGC [CCGCUG] | 1.28 ± 0.15 | 1.56 ± 0.12 |
| GCUGUCACCGAGAAACUGUGAAGUAUAUCUUAAACCUGGGCACUUAAAAGAUAUAUGGAGUUAGUAGUGCAACCUGCUCGGUCUGAUGAGUCCCCGCUAGGACGAAACAGC [CCGCUA] | 1.43 ± 0.078 | 1.68 ± 0.091 |
| GCUGUCACCGAGAAACUGUGAAGUAUAUCUUAAACCUGGGCACUUAAAAGAUAUAUGGAGUUAGUAGUGCAACCUGCUCGGUCUGAUGAGUCCACGCGUGGACGAAACAGC [ACGCGU] | 1.504 ± 0.0098 | 1.71 ± 0.14 |
| GCUGUCACCGAGAAACUGUGAAGUAUAUCUUAAACCUGGGCACUUAAAAGAUAUAUGGAGUUAGUAGUGCAACCUGCUCGGUCUGAUGAGUCCUCGCUAGGACGAAACAGC [UCGCUA] | 1.46 ± 0.026 | 1.7 ± 0.047 |
| GCUGUCACCGAGAAACUGUGAAGUAUAUCUUAAACCUGGGCACUUAAAAGAUAUAUGGAGUUAGUAGUGCAACCUGCUCGGUCUGAUGAGUCCUCGCUUGGACGAAACAGC [UCGCUU] | 1.66 ± 0.018 | 1.84 ± 0.11 |
| GCUGUCACCGAGAAACUGUGAAGUAUAUCUUAAACCUGGGCACUUAAAAGAUAUAUGGAGUUAGUAGUGCAACCUGCUCGGUCUGAUGAGUCCUCGCUCGGACGAAACAGC [UCGCUC] | 1.742 ± 0.011 | 1.87 ± 0.14 |
| GCUGUCACCGAGAAACUGUGAAGUAUAUCUUAAACCUGGGCACUUAAAAGAUAUAUGGAGUUAGUAGUGCAACCUGCUCGGUCUGAUGAGUCCUCGCUGGGACGAAACAGC [UCGCUG] | 1.69 ± 0.0043 | 1.84 ± 0.082 |
| GCUGUCACCGAGAAACUGUGAAGUAUAUCUUAAACCUGGGCACUUAAAAGAUAUAUGGAGUUAGUAGUGCAACCUGCUCGGUCUGAUGAGUCCACGCUAGGACGAAACAGC [ACGCUA] | 1.53 ± 0.026 | 1.72 ± 0.13 |
| GCUGUCACCGAGAAACUGUGAAGUAUAUCUUAAACCUGGGCACUUAAAAGAUAUAUGGAGUUAGUAGUGCAACCUGCUCGGUCUGAUGAGUCCACGCUGGGACGAAACAGC [ACGCUG] | 1.62 ± 0.039 | 1.79 ± 0.089 |
| GCUGUCACCGAGAAACUGUGAAGUAUAUCUUAAACCUGGGCACUUAAAAGAUAUAUGGAGUUAGUAGUGCAACCUGCUCGGUCUGAUGAGUCCACGCUUGGACGAAACAGC [ACGCUU] | 1.37 ± 0.076 | 1.6 ± 0.17 |
